The record followed here is patent US10941182 (Amgen, dated 2021).

B1: apelin polypeptide SEQ ID NO: 218 (peptide)
peptide: Tridecanoyl-[γGlu][AEEA][AEEA][dR]Q[hArg]P[dR][NMeL]SHKG[Oic][Nle]P[Phe(4-Cl)]-OH
SMILES: CCCCCCCCCCCCC(=O)N[C@@H](CCC(=O)NCCOCCOCC(=O)NCCOCCOCC(=O)N[C@H](CCCNC(=N)N)C(=O)N[C@@H](CCC(N)=O)C(=O)N[C@@H](CCCCNC(=N)N)C(=O)N1CCC[C@H]1C(=O)N[C@H](CCCNC(=N)N)C(=O)N(C)[C@@H](CC(C)C)C(=O)N[C@@H](CO)C(=O)N[C@@H](Cc1c[nH]cn1)C(=O)N[C@@H](CCCCN)C(=O)NCC(=O)N1[C@H](C(=O)N[C@@H](CCCC)C(=O)N2CCC[C@H]2C(=O)N[C@@H](Cc2ccc(Cl)cc2)C(=O)O)C[C@@H]2CCCC[C@@H]21)C(=O)O
B2: apelin polypeptide SEQ ID NO: 220 (peptide)
peptide: Tridecanoyl-[γGlu][AEEA][AEEA][dR]Q[hArg]P[dR][NMeL]SHKG[Oic][Nle]P[dBip]-OH
SMILES: CCCCCCCCCCCCC(=O)N[C@@H](CCC(=O)NCCOCCOCC(=O)NCCOCCOCC(=O)N[C@H](CCCNC(=N)N)C(=O)N[C@@H](CCC(N)=O)C(=O)N[C@@H](CCCCNC(=N)N)C(=O)N1CCC[C@H]1C(=O)N[C@H](CCCNC(=N)N)C(=O)N(C)[C@@H](CC(C)C)C(=O)N[C@@H](CO)C(=O)N[C@@H](Cc1c[nH]cn1)C(=O)N[C@@H](CCCCN)C(=O)NCC(=O)N1[C@H](C(=O)N[C@@H](CCCC)C(=O)N2CCC[C@H]2C(=O)N[C@H](Cc2ccc(-c3ccccc3)cc2)C(=O)O)C[C@@H]2CCCC[C@@H]21)C(=O)O
B3: apelin polypeptide SEQ ID NO: 217 (peptide)
peptide: Tridecanoyl-[γGlu][AEEA][AEEA][dR]QRP[hArg][Cha]SHKG[Oic][Phe(4-I)]P[dBip]-OH
SMILES: CCCCCCCCCCCCC(=O)N[C@@H](CCC(=O)NCCOCCOCC(=O)NCCOCCOCC(=O)N[C@H](CCCNC(=N)N)C(=O)N[C@@H](CCC(N)=O)C(=O)N[C@@H](CCCNC(=N)N)C(=O)N1CCC[C@H]1C(=O)N[C@@H](CCCCNC(=N)N)C(=O)N[C@@H](CC1CCCCC1)C(=O)N[C@@H](CO)C(=O)N[C@@H](Cc1c[nH]cn1)C(=O)N[C@@H](CCCCN)C(=O)NCC(=O)N1[C@H](C(=O)N[C@@H](Cc2ccc(I)cc2)C(=O)N2CCC[C@H]2C(=O)N[C@H](Cc2ccc(-c3ccccc3)cc2)C(=O)O)C[C@@H]2CCCC[C@@H]21)C(=O)O
B4: apelin polypeptide SEQ ID NO: 224 (peptide)
peptide: Tridecanoyl-[γGlu][AEEA][AEEA]QRP[dR][Cha]SHKG[Oic][Phe(4-I)]P[dBip]-OH
SMILES: CCCCCCCCCCCCC(=O)N[C@@H](CCC(=O)NCCOCCOCC(=O)NCCOCCOCC(=O)N[C@@H](CCC(N)=O)C(=O)N[C@@H](CCCNC(=N)N)C(=O)N1CCC[C@H]1C(=O)N[C@H](CCCNC(=N)N)C(=O)N[C@@H](CC1CCCCC1)C(=O)N[C@@H](CO)C(=O)N[C@@H](Cc1c[nH]cn1)C(=O)N[C@@H](CCCCN)C(=O)NCC(=O)N1[C@H](C(=O)N[C@@H](Cc2ccc(I)cc2)C(=O)N2CCC[C@H]2C(=O)N[C@H](Cc2ccc(-c3ccccc3)cc2)C(=O)O)C[C@@H]2CCCC[C@@H]21)C(=O)O
B5: apelin polypeptide SEQ ID NO: 216 (peptide)
peptide: Tridecanoyl-[γGlu][AEEA][AEEA]RQRP[dR][Cha]SHKG[Oic][Phe(4-I)]P[dBip]-OH
SMILES: CCCCCCCCCCCCC(=O)N[C@@H](CCC(=O)NCCOCCOCC(=O)NCCOCCOCC(=O)N[C@@H](CCCNC(=N)N)C(=O)N[C@@H](CCC(N)=O)C(=O)N[C@@H](CCCNC(=N)N)C(=O)N1CCC[C@H]1C(=O)N[C@H](CCCNC(=N)N)C(=O)N[C@@H](CC1CCCCC1)C(=O)N[C@@H](CO)C(=O)N[C@@H](Cc1c[nH]cn1)C(=O)N[C@@H](CCCCN)C(=O)NCC(=O)N1[C@H](C(=O)N[C@@H](Cc2ccc(I)cc2)C(=O)N2CCC[C@H]2C(=O)N[C@H](Cc2ccc(-c3ccccc3)cc2)C(=O)O)C[C@@H]2CCCC[C@@H]21)C(=O)O
B6: apelin polypeptide SEQ ID NO: 219 (peptide)
peptide: Tridecanoyl-[γGlu][AEEA][AEEA][dR]Q[hArg]P[dR][NMeL]SHKG[Oic][Phe(4-I)]P[Phe(4-Cl)]-OH
SMILES: CCCCCCCCCCCCC(=O)N[C@@H](CCC(=O)NCCOCCOCC(=O)NCCOCCOCC(=O)N[C@H](CCCNC(=N)N)C(=O)N[C@@H](CCC(N)=O)C(=O)N[C@@H](CCCCNC(=N)N)C(=O)N1CCC[C@H]1C(=O)N[C@H](CCCNC(=N)N)C(=O)N(C)[C@@H](CC(C)C)C(=O)N[C@@H](CO)C(=O)N[C@@H](Cc1c[nH]cn1)C(=O)N[C@@H](CCCCN)C(=O)NCC(=O)N1[C@H](C(=O)N[C@@H](Cc2ccc(I)cc2)C(=O)N2CCC[C@H]2C(=O)N[C@@H](Cc2ccc(Cl)cc2)C(=O)O)C[C@@H]2CCCC[C@@H]21)C(=O)O
B7: apelin polypeptide SEQ ID NO: 223 (peptide)
peptide: Tridecanoyl-[γGlu][AEEA][AEEA]QRP[hArg][Cha]SHKG[Oic][Phe(4-I)]P[dBip]-OH
SMILES: CCCCCCCCCCCCC(=O)N[C@@H](CCC(=O)NCCOCCOCC(=O)NCCOCCOCC(=O)N[C@@H](CCC(N)=O)C(=O)N[C@@H](CCCNC(=N)N)C(=O)N1CCC[C@H]1C(=O)N[C@@H](CCCCNC(=N)N)C(=O)N[C@@H](CC1CCCCC1)C(=O)N[C@@H](CO)C(=O)N[C@@H](Cc1c[nH]cn1)C(=O)N[C@@H](CCCCN)C(=O)NCC(=O)N1[C@H](C(=O)N[C@@H](Cc2ccc(I)cc2)C(=O)N2CCC[C@H]2C(=O)N[C@H](Cc2ccc(-c3ccccc3)cc2)C(=O)O)C[C@@H]2CCCC[C@@H]21)C(=O)O
B8: apelin polypeptide SEQ ID NO: 221 (peptide)
peptide: Tridecanoyl-[γGlu][AEEA][AEEA][dR]Q[hArg]P[dR][Cha]SHKG[Oic][Nle]P[Phe(4-Cl)]-OH
SMILES: CCCCCCCCCCCCC(=O)N[C@@H](CCC(=O)NCCOCCOCC(=O)NCCOCCOCC(=O)N[C@H](CCCNC(=N)N)C(=O)N[C@@H](CCC(N)=O)C(=O)N[C@@H](CCCCNC(=N)N)C(=O)N1CCC[C@H]1C(=O)N[C@H](CCCNC(=N)N)C(=O)N[C@@H](CC1CCCCC1)C(=O)N[C@@H](CO)C(=O)N[C@@H](Cc1c[nH]cn1)C(=O)N[C@@H](CCCCN)C(=O)NCC(=O)N1[C@H](C(=O)N[C@@H](CCCC)C(=O)N2CCC[C@H]2C(=O)N[C@@H](Cc2ccc(Cl)cc2)C(=O)O)C[C@@H]2CCCC[C@@H]21)C(=O)O
B9: apelin polypeptide SEQ ID NO: 17 (peptide)
peptide: Ac-RQRP[hArg][Cha]SHKG[Oic][Nle]P[Phe(4-Cl)]-OH
SMILES: CCCC[C@H](NC(=O)[C@@H]1C[C@@H]2CCCC[C@@H]2N1C(=O)CNC(=O)[C@H](CCCCN)NC(=O)[C@H](Cc1c[nH]cn1)NC(=O)[C@H](CO)NC(=O)[C@H](CC1CCCCC1)NC(=O)[C@H](CCCCNC(=N)N)NC(=O)[C@@H]1CCCN1C(=O)[C@H](CCCNC(=N)N)NC(=O)[C@H](CCC(N)=O)NC(=O)[C@H](CCCNC(=N)N)NC(C)=O)C(=O)N1CCC[C@H]1C(=O)N[C@@H](Cc1ccc(Cl)cc1)C(=O)O
B10: apelin polypeptide SEQ ID NO: 222 (peptide)
peptide: Tridecanoyl-[γGlu][AEEA][AEEA]QRP[hArg][NMeL]SHKG[Oic][Phe(4-I)]P[dBip]-OH
SMILES: CCCCCCCCCCCCC(=O)N[C@@H](CCC(=O)NCCOCCOCC(=O)NCCOCCOCC(=O)N[C@@H](CCC(N)=O)C(=O)N[C@@H](CCCNC(=N)N)C(=O)N1CCC[C@H]1C(=O)N[C@@H](CCCCNC(=N)N)C(=O)N(C)[C@@H](CC(C)C)C(=O)N[C@@H](CO)C(=O)N[C@@H](Cc1c[nH]cn1)C(=O)N[C@@H](CCCCN)C(=O)NCC(=O)N1[C@H](C(=O)N[C@@H](Cc2ccc(I)cc2)C(=O)N2CCC[C@H]2C(=O)N[C@H](Cc2ccc(-c3ccccc3)cc2)C(=O)O)C[C@@H]2CCCC[C@@H]21)C(=O)O

Starred links: 1 amine or outer side, 2 acyl side, 3 side chain; linkers in the order of their positions; H or OH if unused. Non-standard residues stand in square brackets, D forms with d. *: point of attachment. dBip = N[C@H](Cc1ccc(-c2ccccc2)cc1)C(=O)O; Oic = O=C(O)[C@@H]1C[C@@H]2CCCC[C@@H]2N1; Phe(4-Cl) = N[C@@H](Cc1ccc(Cl)cc1)C(=O)O; Phe(4-I) = N[C@@H](Cc1ccc(I)cc1)C(=O)O; γGlu = O=C(O)[C@H](CCC(=O)[*:2])N[*:1]; Tridecanoyl = CCCCCCCCCCCCC(=O)*; hArg = N=C(N)NCCCC[C@H](N)C(=O)O; Cha = N[C@@H](CC1CCCCC1)C(=O)O; NMeL = CN[C@@H](CC(C)C)C(=O)O; Nle = CCCC[C@H](N)C(=O)O; AEEA = NCCOCCOCC(=O)O

In one assay the target is T1, human APJ receptor (human, UniProt P35414 1-380).
T1 sequence (looked up): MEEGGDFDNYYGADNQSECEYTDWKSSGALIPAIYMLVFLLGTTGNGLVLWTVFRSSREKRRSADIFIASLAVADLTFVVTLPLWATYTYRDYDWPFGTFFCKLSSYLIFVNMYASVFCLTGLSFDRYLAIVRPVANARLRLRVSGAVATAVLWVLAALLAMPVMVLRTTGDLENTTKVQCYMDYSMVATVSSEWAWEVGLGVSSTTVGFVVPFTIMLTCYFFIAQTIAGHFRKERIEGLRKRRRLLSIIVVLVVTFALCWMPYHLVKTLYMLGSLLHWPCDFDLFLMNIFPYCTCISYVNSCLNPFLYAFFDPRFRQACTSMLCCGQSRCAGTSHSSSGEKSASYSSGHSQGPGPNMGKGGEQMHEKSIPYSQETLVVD
The assay can be described thus: cell-based or functional assay.
On to B1, for which the “EC50 Human APJ Receptor” value was found to be 0.841 nM.
As for B2, the “EC50 Human APJ Receptor” value was determined as 2.72 nM.
As to B3, the “EC50 Human APJ Receptor” value came to 4.67 nM.
The same measure, in the same setting: to B4 belongs 28.2 nM.
For B5, the “EC50 Human APJ Receptor” value amounted to 10.8 nM.
In the case of B6, the “EC50 Human APJ Receptor” value is 10.1 nM.
Same read-out and setting: the result for B7 reads 11.3 nM; that for B8, 0.196 nM.
Turning to B9, the “EC50 Human APJ Receptor” value turned out to be 0.171 nM.
As to B10, the “EC50 Human APJ Receptor” value came to 1.23 nM.

Another assay has as its target T2, rat APJ receptor (rat, UniProt Q9JHG3 1-377).
T2 sequence (looked up): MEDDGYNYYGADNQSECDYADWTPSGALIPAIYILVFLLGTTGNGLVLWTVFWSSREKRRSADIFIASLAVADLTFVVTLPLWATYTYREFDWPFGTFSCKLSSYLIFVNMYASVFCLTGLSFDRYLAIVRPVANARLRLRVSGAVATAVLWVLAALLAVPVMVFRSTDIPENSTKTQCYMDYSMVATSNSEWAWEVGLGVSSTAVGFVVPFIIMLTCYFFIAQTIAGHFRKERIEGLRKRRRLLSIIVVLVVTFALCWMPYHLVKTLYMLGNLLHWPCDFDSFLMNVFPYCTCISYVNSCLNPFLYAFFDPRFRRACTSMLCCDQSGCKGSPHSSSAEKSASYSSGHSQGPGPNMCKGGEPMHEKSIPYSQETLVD
The assay can be described thus: cell-based or functional assay.
As for B1, the “EC50 Rat APJ Receptor” value amounted to 14.9 nM.
Still for that read-out and setting: the result for B2 reads 27.6 nM; that for B3, 8.83 nM.
Still for that read-out and setting: to B4 belongs 102 nM.
With B5, the “EC50 Rat APJ Receptor” value was 22.5 nM.
As to B6, the “EC50 Rat APJ Receptor” value came to 45 nM.
Take B7: the “EC50 Rat APJ Receptor” value was 52.8 nM.
Same read-out and setting: the result for B8 reads 1.93 nM; that for B9, 1.59 nM.
Same read-out and setting: the result for B10 reads 6.87 nM.
